Source: patent publication US20220169728A1 (AB THERAPEUTICS, published 2022)
Numbering of substitutions follows the chain as printed. Names may count otherwise.

T1: CD55 (UniProt P08174 35-353, limits assumed)
T1 construct: whole, on cells; also called CD55 on Rituximab resistant Raji cells (RRCL)
T1 sequence (looked up): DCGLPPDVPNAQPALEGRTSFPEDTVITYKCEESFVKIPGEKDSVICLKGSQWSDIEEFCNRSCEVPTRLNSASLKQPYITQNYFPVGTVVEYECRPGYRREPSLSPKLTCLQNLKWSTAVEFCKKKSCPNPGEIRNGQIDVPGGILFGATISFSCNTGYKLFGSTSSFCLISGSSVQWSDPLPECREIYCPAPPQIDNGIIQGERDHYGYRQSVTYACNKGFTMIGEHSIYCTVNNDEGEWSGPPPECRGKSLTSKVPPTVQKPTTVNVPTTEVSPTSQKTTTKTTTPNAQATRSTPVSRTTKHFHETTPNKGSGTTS

B1: CD20/CD3 BsMab with common VL (SEQ ID NO: 3) H33S (bispecific antibody, V domains shown)
VH 1: QVQLQQPGAELVKPGASVKMSCKASGYTFTSYNMHWVKQTPGRGLEWIGAIYPGNGDTSYNQKFKGKATLTADKSSSTAYMQLSSLRSEDSAVYYCARSTYYGGDWYFNVWGAGTTVTVSA
VH 2: EVQLQESGAELARPGASVKMSCKASGYTFTSYTMHWVKQRPGEGLEWIGYINPSSGYTKYNQKFKDKATLTADKSSSTAYMELSSLTSEDSAVYYCARWQDYDVYFDYWGEGTTLTVSS
VL: QIVLSQSPAILSASPGEKVTMTCRASSSVSYISWFQQKPGSSPKPWIYATSNLASGVPVRFSGSGSGTSYSLTISRVEAEDAATYYCQQWTSNPPTFGGGTKLEIKR
B2: CD20/CD3 BsMab with common VL (SEQ ID NO: 3) H33M (bispecific antibody, V domains shown)
VH 1: B1 VH 1
VH 2: B1 VH 2
VL: B1 VL with S33M
B3: CD20/CD3 BsMab with common VL (SEQ ID NO: 3) Q88V (bispecific antibody, V domains shown)
VH 1: B1 VH 1
VH 2: B1 VH 2
VL: B1 VL with S33H, Q88V
B4: CD20/CD3 BsMab with common VL (SEQ ID NO: 3) Q88L (bispecific antibody, V domains shown)
VH 1: B1 VH 1
VH 2: B1 VH 2
VL: B1 VL with S33H, Q88L
B5: CD20/CD3 BsMab with common VL (SEQ ID NO: 3) Q88H (bispecific antibody, V domains shown)
VH 1: B1 VH 1
VH 2: B1 VH 2
VL: B1 VL with S33H, Q88H
B6: CD20/CD3 BsMab with common VL (SEQ ID NO: 3) N93C (bispecific antibody, V domains shown)
VH 1: B1 VH 1
VH 2: B1 VH 2
VL: B1 VL with S33H, N93C
B7: CD20/CD3 BsMab with common VL (SEQ ID NO: 3) Q88Y (bispecific antibody, V domains shown)
VH 1: B1 VH 1
VH 2: B1 VH 2
VL: B1 VL with S33H, Q88Y
B8: CD20/CD3 BsMab with common VL (SEQ ID NO: 3) Q88M (bispecific antibody, V domains shown)
VH 1: B1 VH 1
VH 2: B1 VH 2
VL: B1 VL with S33H, Q88M
B9: CD20/CD3 BsMab with common VL (SEQ ID NO: 3) Q88P (bispecific antibody, V domains shown)
VH 1: B1 VH 1
VH 2: B1 VH 2
VL: B1 VL with S33H, Q88P
B10: CD20/CD3 BsMab with common VL (SEQ ID NO: 3) N93L (bispecific antibody, V domains shown)
VH 1: B1 VH 1
VH 2: B1 VH 2
VL: B1 VL with S33H, N93L
B11: CD20/CD3 BsMab with common VL (SEQ ID NO: 3) Q88G (bispecific antibody, V domains shown)
VH 1: B1 VH 1
VH 2: B1 VH 2
VL: B1 VL with S33H, Q88G
B12: anti-CD55 antibody with CD55VH (SEQ ID NO: 14) N52C and VL (SEQ ID NO: 15) (antibody, V domains shown)
VH: QVKLQESGGGLVQPGGSLKLSCAASGFTFSGYGMSWIRQTPDKRLEWVATICSGGSYTYYSDSVKGRFTISRDNVKNTLYLQMSSLKSEDTAMYYCARRNGTLYYYLMDYWGRGTLVTVSS
VL: QSVLTQPPSASGSPGQSVTISCTGTSSDVGGYNYVSWYQQHPGKAPKFMIYDVSKRPSGVSNRFSGSKSGNTASLTISGVQAEDEADYYCSSYTSASTVIFGGGTKLTVL
notes: also called Test 3
B13: anti-CD55 antibody with CD55VH (SEQ ID NO: 14) N52Y and VL (SEQ ID NO: 15) (antibody, V domains shown)
VH: B12 VH with C52Y
VL: B12 VL
notes: also called Test 9
B14: anti-CD55 antibody with CD55VH (SEQ ID NO: 14) N100E and VL (SEQ ID NO: 15) (antibody, V domains shown)
VH: B12 VH with C52N, N100E
VL: B12 VL
notes: also called Test 24
B15: anti-CD55 antibody with CD55VH (SEQ ID NO: 14) N52M and VL (SEQ ID NO: 15) (antibody, V domains shown)
VH: B12 VH with C52M
VL: B12 VL
notes: also called Test 8
B16: anti-CD55 antibody with CD55VH (SEQ ID NO: 14) N100K and VL (SEQ ID NO: 15) (antibody, V domains shown)
VH: B12 VH with C52N, N100K
VL: B12 VL
notes: also called Test 13
B17: anti-CD55 antibody with CD55VH (SEQ ID NO: 14) N100F and VL (SEQ ID NO: 15) (antibody, V domains shown)
VH: B12 VH with C52N, N100F
VL: B12 VL
notes: also called Test 18
B18: anti-CD55 antibody with CD55VH (SEQ ID NO: 14) N100I and VL (SEQ ID NO: 15) (antibody, V domains shown)
VH: B12 VH with C52N, N100I
VL: B12 VL
notes: also called Test 23
B19: anti-CD55 antibody with CD55VH (SEQ ID NO: 14) N52P and VL (SEQ ID NO: 15) (antibody, V domains shown)
VH: B12 VH with C52P
VL: B12 VL
notes: also called Test 11
B20: anti-CD55 antibody with CD55VH (SEQ ID NO: 14) N52G and VL (SEQ ID NO: 15) (antibody, V domains shown)
VH: B12 VH with C52G
VL: B12 VL
notes: also called Test 4
B21: anti-CD55 antibody with CD55VH (SEQ ID NO: 14) N52W and VL (SEQ ID NO: 15) (antibody, V domains shown)
VH: B12 VH with C52W
VL: B12 VL
notes: also called Test 7
B22: anti-CD55 antibody with CD55VH (SEQ ID NO: 14) N100Q (printed "N1000") and VL (SEQ ID NO: 15) (antibody, V domains shown)
VH: B12 VH with C52N, N100Q
VL: B12 VL
notes: The cell prints "N1000"; also called Test 22
B23: anti-CD55 antibody with CD55VH (SEQ ID NO: 14) N100L and VL (SEQ ID NO: 15) (antibody, V domains shown)
VH: B12 VH with C52N, N100L
VL: B12 VL
notes: also called Test 17
B24: anti-CD55 antibody with CD55VH (SEQ ID NO: 14) N100Y and VL (SEQ ID NO: 15) (antibody, V domains shown)
VH: B12 VH with C52N, N100Y
VL: B12 VL
notes: also called Test 16
B25: anti-CD55 antibody with CD55VH (SEQ ID NO: 14) N100A and VL (SEQ ID NO: 15) (antibody, V domains shown)
VH: B12 VH with C52N, N100A
VL: B12 VL
notes: also called Test 20
B26: anti-CD55 antibody with CD55VH (SEQ ID NO: 14) N100M and VL (SEQ ID NO: 15) (antibody, V domains shown)
VH: B12 VH with C52N, N100M
VL: B12 VL
notes: also called Test 19
B27: anti-CD55 antibody with CD55VH (SEQ ID NO: 14) N52L and VL (SEQ ID NO: 15) (antibody, V domains shown)
VH: B12 VH with C52L
VL: B12 VL
notes: also called Test 10
B28: anti-CD55 antibody with CD55VH (SEQ ID NO: 14) N100T and VL (SEQ ID NO: 15) (antibody, V domains shown)
VH: B12 VH with C52N, N100T
VL: B12 VL
notes: also called Test 14
B29: anti-CD55 antibody with CD55VH (SEQ ID NO: 14) N100H and VL (SEQ ID NO: 15) (antibody, V domains shown)
VH: B12 VH with C52N, N100H
VL: B12 VL
notes: also called Test 21
B30: anti-CD55 antibody with CD55VH (SEQ ID NO: 14) N100V and VL (SEQ ID NO: 15) (antibody, V domains shown)
VH: B12 VH with C52N, N100V
VL: B12 VL
notes: also called Test 15
B31: anti-CD55 antibody with CD55VH (SEQ ID NO: 14) N52V and VL (SEQ ID NO: 15) (antibody, V domains shown)
VH: B12 VH with C52V
VL: B12 VL
notes: also called Test 5
B32: anti-CD55 antibody with CD55VH (SEQ ID NO: 14) N52S and VL (SEQ ID NO: 15) (antibody, V domains shown)
VH: B12 VH with C52S
VL: B12 VL
notes: also called Test 2
B33: anti-CD55 antibody with CD55VH (SEQ ID NO: 14) N52E and VL (SEQ ID NO: 15) (antibody, V domains shown)
VH: B12 VH with C52E
VL: B12 VL
notes: also called Test 6

Target: CD3 (Homo sapiens (Human), UniProt P07766 23-207; P04234 22-171; P09693 23-182)
Assay: cell-based or functional assay

CD3, sequence (P07766 23-207 limits assumed, chain 1 of 3): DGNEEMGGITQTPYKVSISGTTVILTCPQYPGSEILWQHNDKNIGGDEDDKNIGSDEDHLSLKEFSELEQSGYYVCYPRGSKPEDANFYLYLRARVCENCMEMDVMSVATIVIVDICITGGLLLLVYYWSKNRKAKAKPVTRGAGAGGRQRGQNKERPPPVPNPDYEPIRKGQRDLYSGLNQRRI
CD3, sequence (P04234 22-171 limits assumed, chain 2 of 3): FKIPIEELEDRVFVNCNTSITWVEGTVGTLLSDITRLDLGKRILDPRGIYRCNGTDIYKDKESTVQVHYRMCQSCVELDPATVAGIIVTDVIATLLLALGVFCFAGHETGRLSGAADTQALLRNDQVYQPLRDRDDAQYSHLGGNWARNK
CD3, sequence (P09693 23-182 limits assumed, chain 3 of 3): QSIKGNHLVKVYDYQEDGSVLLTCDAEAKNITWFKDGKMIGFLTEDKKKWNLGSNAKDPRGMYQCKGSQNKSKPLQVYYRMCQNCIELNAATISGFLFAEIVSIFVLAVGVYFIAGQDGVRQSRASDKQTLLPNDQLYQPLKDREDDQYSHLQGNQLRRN

Function % 0.025 ug/ml (T cell activation, CD69 on Jurkat cells with Raji cells, against the unmutated baseline) [%]	Function % 2 ug/ml (T cell activation, CD69 on Jurkat cells with Raji cells, against the unmutated baseline) [%]	Binder
108	95	B1
13	74	B2
14	75	B3
8	55	B4
12	36	B5
16	77	B6
8	21	B7
27	95	B8
7	16	B9
9	65	B10
8	39	B11

Target: T1, CD55
Assay: binding at 5 µg/ml against the unmutated antibody (SEQ ID NO: 14 + 15); format not stated

Function remaining percentage (5 µg/ml) [%]	Binder
32	B12
17	B13
17	B14
16	B15
106	B16
86	B17
62	B18
11	B19
28	B20
17	B21
62	B22
92	B23
95	B24
83	B25
86	B26
15	B27
96	B28
72	B29
94	B30
21	B31
95	B32
21	B33
